The text below walks through data of PMC4906244.

The term Kd denotes the constant that tells how readily two partners part at equilibrium.

This series deals with His6-ComPsub (Neisseria subflava NJ9703), PDB:2NBA_1. Briefly: SPR. The settings on record: DNA immobilized on neutravidin chip; EMSA: 20 mM Tris-Cl pH 8, 50 mM NaCl, 2.5 mM Mg2+, ambient temperature; SPR: 20 mM Tris pH 8, 150 mM NaCl, 0.05% Tween 20, 25 C; NMR: 50 mM sodium phosphate pH …. A general note: Mobility shift assays separate free from complexed probe on a gel.

As for “TGACCAGGCCGTCTGAACAAAC (double strand) [DUSvar1 ds primer (biotinylated)]”, the Kd was determined as 52.7 µM.
